Experiment [1] deals with T1, human FcεRIα protein (alpha chain of the high affinity IgE receptor) (human, UniProt P12319 26-201).
T1 construct: Purified soluble protein used in solution; The embodiments and claims speak of the extracellular region 1-176
T1 sequence (looked up): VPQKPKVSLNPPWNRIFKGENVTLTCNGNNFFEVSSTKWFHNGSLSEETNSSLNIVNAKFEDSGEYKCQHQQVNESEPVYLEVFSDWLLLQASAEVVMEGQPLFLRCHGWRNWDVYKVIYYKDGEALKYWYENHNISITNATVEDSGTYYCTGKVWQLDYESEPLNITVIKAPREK
Description: fluorescence quenching receptor binding titration, 96-well plate. As for the experimental part: Binding buffer conditions were optimized to improve reproducibility of the binding assay in a 96-well plate format.
(§1) Fluorescence Measurement. Samples were monitored by fluorescence using a Synergy 4 Fluorometer (BioTek) in black 96-well Costar fluorescence plates (Corning). […] The read-type for typical measurements was Endpoint. All measurements were recorded in duplicate.

Experiment [2] deals with T1, human FcεRIα protein (alpha chain of …). The experiment can be described thus: fluorescence quenching competition assay; competitor of 488-labeled 367C IgE-Fc for FcεRIα. As for the experimental part: Initial experiments were conducted with unlabeled IgE-Fc as the competitor.
as §1

B1: Alexa Fluor 488-labeled 367C IgE-Fc (human IgE-Fc Cε3-Cε4 C328A/K367C double mutant) (other)
chain: ADPAADSNPRGVSAYLSRPSPFDLFIRKSPTITCLVVDLAPSCGTVNLTWSRASGKPVNHSTRKEEKQRNGTLTVTSTLPVGTRDWIEGETYQCRVTHPHLPRALMRSTTKTSGPRAAPEVYAFATPEWPGSRDKRTLACLIQNFMPEDISVQWLHNEVQLPDARHSTTQPRKTKGSGFFVFSRLEVTRAEWEQKDEFICRAVHEAASPSQTVQRAVSVNPGKAADDDDKRYLDPAFLYKVRMNEDLGKPIPNPLLGLDSTRTGHHHHHH
modifications: Alexa Fluor 488 maleimide dye on Cys 367 (Dorrington and Bennich numbering)
notes: Expressed in insect cells; also called labeled IgE-Fc
Turning to B1, in experiment [1], the equilibrium dissociation constant (Kd) was around 22 nM.

B2: unlabeled wild type IgE-Fc (human IgE-Fc Cε3-Cε4) (other)
chain: ADPCADSNPRGVSAYLSRPSPFDLFIRKSPTITCLVVDLAPSKGTVNLTWSRASGKPVNHSTRKEEKQRNGTLTVTSTLPVGTRDWIEGETYQCRVTHPHLPRALMRSTTKTSGPRAAPEVYAFATPEWPGSRDKRTLACLIQNFMPEDISVQWLHNEVQLPDARHSTTQPRKTKGSGFFVFSRLEVTRAEWEQKDEFICRAVHEAASPSQTVQRAVSVNPGK
notes: also called unlabeled IgE-Fc; unlabeled IgE
As to B2, the EC50 in experiment [2] was around 75 nM.

Values taken from US20110281365A1 (Stanford University, published 2011).
